Where two headings read alike, the source gives them in different places.
How the values were obtained:
[1] = molecular target: T1, human pulmonary SP-A protein in human lung tissue (Homo sapiens, endogenous lung tissue, UniProt Q8IWL2)
[2] = molecular target: T1, human pulmonary SP-A protein in human …; test: far-Western, overlay or dot blot; human lung tissue homogenate proteins separated by SDS-PAGE, transferred to a PVDF membrane and probed with Nb4 overnight at 4 °C; detected with anti-His-HRP; conditions: one partner purified
[3] = molecular target: T2, recombinant human SP-A protein (pulmonary surfactant protein A) (Homo sapiens, UniProt Q8IWL2); test: BLI; ForteBio's Octet System; Nb4 and purified recombinant human SP-A; who was immobilised is not stated; conditions: both partners purified
T2 construct: human pulmonary surfactant protein A; gene provided by Shanghai YouLong Biotech; About 41 kDa on SDS-PAGE, which would fit a fusion with the carrier of the pET32 vector; also called purified recombinant SP-A; PET32-SPA; source: E. coli BL21 (PET32-SPA), purified

[4] = molecular target: T3, SP-A in human lung epithelial A549 cells (Homo sapiens, endogenous in A549 cells, UniProt Q8IWL2); test: immunostaining of cells or tissue; fixed A549, L-02 and 293T cells stained with Nb4-FITC; confocal microscopy; conditions: one partner purified
T3 construct: human pulmonary surfactant protein A, endogenous in A549 cells; source: endogenous, A549 cells, fixed
T3 sequence (Q8IWL2 21-248): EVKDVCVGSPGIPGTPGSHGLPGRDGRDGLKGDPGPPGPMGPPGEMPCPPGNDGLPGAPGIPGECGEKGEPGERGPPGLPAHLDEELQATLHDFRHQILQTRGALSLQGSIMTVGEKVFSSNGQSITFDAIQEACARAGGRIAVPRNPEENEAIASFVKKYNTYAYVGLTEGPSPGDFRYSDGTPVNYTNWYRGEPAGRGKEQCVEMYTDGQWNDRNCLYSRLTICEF

T1 sequence (Q8IWL2 21-248): as above
T2 sequence (Q8IWL2 21-248): as above

Row | Binder | binding result [1] | also measured
1 | Nb43 (VHH) VHH: QLQLVESGGGLVQSGGSLRLSCAASGFTFNDYRMSWVRQAPGKGLEWVSDINSGGSSTYYADSVKGRFTVSRDNAKNTLYLQMNSLKPEDTAIYYCVALLGRGCSGLVQGAFGPWGQGTQVTVSS | binds | –
2 | Nb11 (VHH) VHH: QLQLVESGGGLVQPGGSLRLSCTASKFHLDSYAVAWFRQTPGKEREAVSFINTSDDVTYFADSVKGRFTISRDNSKNTVYLQMNVLKPEDTSIYVCAAVRSPGPTGPSMQPMWSVPDLYDYWGQGTQVTVSS | binds | –
3 | Nb29 (VHH) VHH: QVKLVESGGGSVQAGGSLRLSCTASGSDYRWMYIARFRQCPGKEREGVAAIYTDDTDDSSPIYATSAKGRFTISQDKDKNAVYLQMNSPKPEDTAMYYCAARAFGGTWSLSSPDDFSAWGQGTQVTVSS | binds | –
4 | Nb38 (VHH) VHH: QVKLVESGGGSVQAGGSLILSCTASGSDYRWMYIARFRQCPGKEREGVAAIYTDDTDDSSPIYATSAKGRFTISQDKDKNAVYLQMNSPKPEDTAMYYCAARAFGGTWSLSSPDDFSAWGQGTQVTVSS | binds | –
5 | Nb4 (anti-human pulmonary SP-A nanobody) (VHH, About 19 kDa on SDS-PAGE; also called Nb4-His; source: E. coli BL21 (pET-26b (+)-VHH), purified) VHH: QLQLVESGGGLVQPGGSLRLSCAASEFTLDYYEIGWFRQAPGKDREGLSCIGYSDRIAYYSESVKGRFTTVRDDATSTVSLYMDMMIPEDTGTYYCAGSVVEPYELLPAAEYDYWGQGTRVTVSS | – | binding result [2]: binds; Kd [3]: 748 nM
6 | Nb4-FITC (VHH, as the VHH chain of m1; Same nanobody as m1, with a FITC label; also called Nb4 labeled with FITC; source: E. coli BL21 (pET-26b (+)-VHH), purified, labeled with FITC) VHH: QLQLVESGGGLVQPGGSLRLSCAASEFTLDYYEIGWFRQAPGKDREGLSCIGYSDRIAYYSESVKGRFTTVRDDATSTVSLYMDMMIPEDTGTYYCAGSVVEPYELLPAAEYDYWGQGTRVTVSS | – | binding result [4]: binds

Now from value to binder, other results behind:

Row | binding result [1] | Binder | also measured
7 | binds | Nb15 (VHH) VHH: QLQLVESGGGLVQPGGSLSVSCAVRGRDLDYYVIGWFRQAPGKEREGVSCINNSDDTTYYSDSVKGRFTISRDHAKNTVYLQMNNLKPEDTALYYCAADFDRLDFTVKAMCVMKFFYYWGQGTQVTVSS | –
8 | binds | Nb6 (VHH) VHH: QLQLVESGGDLAQPGGSLTLSCTASGTFKIYSMGWYRRPQRELVAEMLNGGDTQYSDSVKGRFTISRTNNTMYLHMNNLKPEDTAVYYCNLQDWYSEPAGDYWGPGTQVTVSS | –
9 | binds | Nb17 (VHH) VHH: QLQLVESGGGLVQPGGSLRLACAASGFNLDDYADIGWFRQAPGKERERVLCITISDGTTYYEDSGKGRFSISTDIAKNTVFLQMDSLKAEDTAVYYCAGDPAPFCLYNTYVPRTWGQGTQVTVSS | –
